Source: patent US20200317768A1 (published 2020)

How the values were obtained:
Assay in all cases: SPR (BIACORE); KD of SG1 / KD of variant;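 also: relative to parent M103205H795-SG1 carrying the SG1 human heavy chain constant region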
[1] = molecular target: T1, cynomolgus monkey FcγRIIa1 extracellular domain, C-terminal His-tag (cynomolgus monkey)
T1 construct: also called cyno FcγRIIa1; cynoFcgRIIa1; not shown: His-tag added to C-terminus
T1 chain: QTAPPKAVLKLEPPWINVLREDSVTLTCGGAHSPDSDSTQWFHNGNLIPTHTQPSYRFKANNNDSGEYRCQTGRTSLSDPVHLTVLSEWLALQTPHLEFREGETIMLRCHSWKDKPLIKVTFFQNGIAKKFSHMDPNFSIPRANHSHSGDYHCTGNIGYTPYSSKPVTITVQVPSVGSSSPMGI
Description: (§1) The kinetic analysis of interactions between these antibodies and FcγR was carried out using BIACORE® T200 or BIACORE® 4000 (GE Healthcare). HBS-EP+ (GE Healthcare) was used as the running buffer, and the measurement temperature was set to 25° C. A chip produced by immobilizing Protein A. Protein A/G or mouse anti-human IgG kappa light chain (BD Biosciences) onto a Series S Sensor Chip CM4 or CM5 (GE Healthcare) by the amine-coupling method was used. […] After the measurement, the antibody captured on the chip was washed off by allowing reaction with 10 mM glycine-HCl, pH1.5 and 25 mM NaOH so that the chip was regenerated and used repeatedly. The sensorgrams obtained as measurement results were analyzed by the 1:1 Langmuir binding model using the BIACORE® Evaluation Software to calculate the binding rate constant ka (L/mol/s) and dissociation rate constant kd (l/s), and the dissociation constant KD (mol/L) was calculated from these values. […] Regarding such interactions, KD values were calculated using the following 1:1 binding model described in BIACORE® T100 Software Handbook BR1006-48 Edition AE.
(§2) The behavior of interacting molecules according to the 1:1 binding model on BIACORE® can be described by Equation 1: Req=C·R max/(KD+C)+RI, wherein, Req is a plot of steady-state binding levels to analyte concentration. C is concentration, RI is bulk refractive index contribution in the sample, and Rmax is analyte binding capacity of the surface. When this equation is rearranged, KD can be expressed as Equation 2: KD=C·Rmax/(Req−RI)−C. KD can be calculated by substituting the values of Rmax, RI, and C into Equation 1 or Equation 2. From the current measurement conditions, RI=0, C=2 μmol/L can be used.

[2] = molecular target: T2, cynomolgus monkey FcγRIIa2 extracellular domain, C-terminal His-tag (cynomolgus monkey)
T2 construct: also called cyno FcγRIIa2; cynoFcgRIIa2; not shown: His-tag added to C-terminus
T2 chain: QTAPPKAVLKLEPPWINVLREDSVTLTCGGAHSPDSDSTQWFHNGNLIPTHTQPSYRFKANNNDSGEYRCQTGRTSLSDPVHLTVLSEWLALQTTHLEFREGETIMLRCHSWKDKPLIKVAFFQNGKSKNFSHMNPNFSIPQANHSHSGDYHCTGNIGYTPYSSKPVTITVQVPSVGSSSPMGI
Description: as §1, §2

[3] = molecular target: T3, cynomolgus monkey FcγRIIa3 extracellular domain, C-terminal His-tag (cynomolgus monkey)
T3 construct: also called cyno FcγRIIa3; cynoFcgRIIa3; not shown: His-tag added to C-terminus
T3 chain: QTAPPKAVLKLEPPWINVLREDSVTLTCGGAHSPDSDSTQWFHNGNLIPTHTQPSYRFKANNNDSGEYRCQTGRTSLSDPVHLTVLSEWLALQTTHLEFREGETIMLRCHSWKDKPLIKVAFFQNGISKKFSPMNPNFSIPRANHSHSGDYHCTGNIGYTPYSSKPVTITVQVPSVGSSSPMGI
Description: as §1, §2

[4] = molecular target: T4, cynomolgus monkey FcγRIIb extracellular domain, C-terminal His-tag (cynomolgus monkey)
T4 construct: also called cyno FcγRIIb; cynoFcγRIIb; not shown: His-tag added to C-terminus
T4 chain: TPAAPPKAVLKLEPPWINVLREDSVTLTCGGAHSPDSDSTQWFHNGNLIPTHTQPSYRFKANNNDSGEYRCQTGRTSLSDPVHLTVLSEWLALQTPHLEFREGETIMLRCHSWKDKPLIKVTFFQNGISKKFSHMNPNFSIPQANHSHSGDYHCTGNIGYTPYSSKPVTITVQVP
Description: as §1, §2

[5] = molecular target: T5, cynomolgus monkey FcγRIIIaS extracellular domain, C-terminal His-tag (cynomolgus monkey, UniProt A3RFZ7 21-206 (rhesus entry))
T5 construct: also called cyno FcγRIIIaS; cynoFcγRIIIaS; not shown: His-tag added to C-terminus
T5 sequence (A3RFZ7 21-206): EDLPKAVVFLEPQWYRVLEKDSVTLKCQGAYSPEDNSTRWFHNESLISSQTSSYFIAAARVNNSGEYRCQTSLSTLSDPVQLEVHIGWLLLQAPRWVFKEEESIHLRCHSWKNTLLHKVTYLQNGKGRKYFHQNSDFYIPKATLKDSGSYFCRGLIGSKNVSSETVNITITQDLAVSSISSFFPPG
Description: as §1, §2

[6] = molecular target: T6, human FcγRIIaH extracellular domain, C-terminal His-tag (human, UniProt P12318 34-217)
T6 construct: also called human FcγRIIa (type H); FcgRIIaH; not shown: His-tag added to C-terminus
T6 sequence: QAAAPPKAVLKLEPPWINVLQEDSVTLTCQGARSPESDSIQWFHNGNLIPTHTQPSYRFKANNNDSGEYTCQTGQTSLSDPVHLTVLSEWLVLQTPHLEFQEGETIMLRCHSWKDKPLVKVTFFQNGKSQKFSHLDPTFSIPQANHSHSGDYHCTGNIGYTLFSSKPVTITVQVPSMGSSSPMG
Description: as §1, §2

[7] = molecular target: T7, human FcγRIIaR extracellular domain, C-terminal His-tag (human, UniProt P12318 34-217)
T7 construct: also called human FcγRIIa (type R); FcgRIIaR; not shown: His-tag added to C-terminus
T7 chain: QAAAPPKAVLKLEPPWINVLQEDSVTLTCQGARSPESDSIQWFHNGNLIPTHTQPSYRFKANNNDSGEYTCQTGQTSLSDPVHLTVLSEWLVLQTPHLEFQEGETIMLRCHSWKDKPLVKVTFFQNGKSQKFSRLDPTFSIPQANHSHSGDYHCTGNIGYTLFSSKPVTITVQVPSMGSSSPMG
Description: as §1, §2

[8] = molecular target: T8, human FcγRIIb extracellular domain, C-terminal His-tag (human, UniProt P31994 43-217)
T8 construct: also called humanFcgRIIb; not shown: His-tag added to C-terminus
T8 sequence: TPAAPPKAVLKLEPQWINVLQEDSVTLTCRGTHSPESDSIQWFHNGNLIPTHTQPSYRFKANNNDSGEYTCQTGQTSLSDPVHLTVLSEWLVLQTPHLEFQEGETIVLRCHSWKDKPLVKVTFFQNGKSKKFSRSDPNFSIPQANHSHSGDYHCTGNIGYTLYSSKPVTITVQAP
Description: as §1, §2

[9] = molecular target: T9, human FcγRIIIaV extracellular domain, C-terminal His-tag (human, UniProt P08637 17-208)
T9 construct: also called FcgRIIIaV; not shown: His-tag added to C-terminus
T9 sequence (P08637 17-208 F176V): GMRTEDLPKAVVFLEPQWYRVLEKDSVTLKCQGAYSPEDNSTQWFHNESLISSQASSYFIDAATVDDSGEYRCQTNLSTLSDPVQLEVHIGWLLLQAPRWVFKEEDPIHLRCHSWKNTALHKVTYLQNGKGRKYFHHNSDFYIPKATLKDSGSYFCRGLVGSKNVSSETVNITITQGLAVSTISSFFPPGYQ
Description: as §1, §2

B1: M103205H795-MY538 / M103202L889-SK1 (A231G/L234W/G236T/H268D/Q295L/A330K, as in Table 23B) (antibody, human IgG1, kappa)
heavy: QVTLKESGPVLVKPTETLTLTCTVSGIDLSHDDISWVRQAPGKGLEWVGIISYAGSTYYASWAKGRLTISKDTSKNQVVLTMTNMDPVDTATYYCARGVPAYSHGGDLWGQGTLVTVSSASTKGPSVFPLAPSSKSTSGGTAALGCLVKDYFPEPVTVSWNSGALTSGVHTFPAVLQSSGLYSLSSVVTVPSSSLGTQTYICNVNHKPSNTKVDKKVEPKSCDKTHTCPPCPGPEWLTGPSVFLFPPKPKDTLMISRTPEVTCVVVDVSDEDPEVKFNWYVDGVEVHNAKTKPREELYNSTYRVVSVLTVLHQDWLNGKEYKCKVSNKALPKPIEKTISKAKGQPREPQVYTLPPSREEMTKNQVSLTCLVKGFYPSDIAVEWESNGQPENNYKTTPPVLDSDGSFFLYSKLTVDKSRWQQGNVFSCSVMHEALHNHYTQKSLSLSP
light: DIVMTQSPATLSLSPGERATLSCTSSQSVYHANWLSWFQQKPGQPPKLLIYWASTLAYGVPSRFSGSGSGTDFTLTISSLQPEDAATYYCAGGYGGGRYAFGQGTKVEIKRTVAAPSVFIFPPSDEQLKSGTASVVCLLNNFYPREAKVQWKVDNALQSGNSQESVTEQDSKDSTYSLSSTLTLSKADYEKHKVYACEVTHQGLSSPVTKSFNRGEC
[1]
  KD fold (SG1 = 1): 3.3 fold
[2]
  KD fold (SG1 = 1): 4.6 fold
[3]
  KD fold (SG1 = 1): 5.7 fold
[4]
  KD fold (SG1 = 1): 6.4 fold
[5]
  KD fold (SG1 = 1): 0.15 fold
[6]
  KD fold (SG1 = 1): 2.8 fold
[7]
  KD fold (SG1 = 1): 1.8 fold
[8]
  KD fold (SG1 = 1): 3.5 fold
[9]
  KD fold (SG1 = 1): 0.14 fold
